In patent US12616740B2, “Methods of using a GIP/GLP1 co-agonist for therapy” (ELI LILLY AND COMPANY, priority 2018, dated 2026):

What was measured:
[1] = tested on: patients with T2DM who have inadequate glycemic control; assay: NCT03131687: mean fasting glucose at Week 26; assay type: in vivo, human; parameters: Mean change from baseline, fasting glucose: unit not given here
Method: Clinical Study (NCT03131687) Supporting Maintenance Dose Embodiments A 6-month (26-week) Phase 2 double-blind clinical study is designed to evaluate the safety, efficacy, and PK/PD of 4 dose levels (1 mg, 5 mg, 10 mg and 15 mg respectively) of tirzepatide once weekly by subcutaneous injection compared with dulaglutide 1.5 mg. once weekly (QW) and placebo QW in patients with T2DM who have inadequate glycemic control with diet and exercise with or without a stable dose of metformin. Tirzepatide dose is up-titrated to the maintenance dose using the following weekly dose increments:
The study also has a 4-week follow up period. In addition to safety and efficacy for treating T2DM, efficacy endpoints include the effect of tirzepatide on HbA1c, FBG, body weight, lipids, and waist circumference compared with placebo and with dulaglutide 1.5 mg. The study also evaluates the effect of tirzepatide on GI tolerability, hypoglycemia, hypersensitivity reactions, and pancreatic safety, as well as the development of treatment-emergent anti-drug antibodies. Model-based dose response analyses are performed to predict potential for significant HbA1c lowering and weight loss in longer studies. Statistical Analyses: Efficacy: The primary efficacy outcome of HbA1c change from baseline to the 26-week endpoint is analyzed using a Bayesian dose-response model. Analyses are performed on the intention to treat population (mITT) analysis set. Supportive analysis of the primary efficacy outcome for the mITT dataset are the model for post-baseline measures (MMRM) with body mass index (BMI) (<30 kg/m^2, ≥30 kg/m^2), metformin use, treatment, visit, and treatment-by-visit interaction as fixed effects, baseline HbA1c as a covariate, and patient as a random effect. The mean weight change from baseline at 12 and 26 weeks, along with the mean change from baseline of HbA1c at 12 weeks, is analyzed using similar dose-response models as the primary analyses. The percentages of patients with ≥5% or ≥10% body weight loss, reaching the HbA1c target of ≤6.5% or ≤7.0% at 26 weeks, or requiring rescue therapy are analyzed using logistic regression with fixed effects of treatment and strata, and baseline as a covariate. The changes from baseline in FBG (fasting blood glucose), SMBG (self-monitored blood glucose) levels, waist circumference, and mean percentage change in lipids from baseline to 12 and 26 weeks are analyzed using a similar MMRM to the one used for the primary analyses. Table Abbreviations: Dula 1.5 mg=dulaglutide 1.5 mg once weekly; LY means tirzepatide, and LY 1 mg=tirzepatide 1 mg once weekly; LY 5 mg=5 mg once weekly; LY 10 mg=escalation dose group tirzepatide once weekly with highest dose of 10 mg; LY 15 mg=escalation dose group of tirzepatide once weekly with highest dose 15 mg; LOCF=last observation-carried-forward; N=number of patients; pbo=placebo; Week 26=mITT on-treatment data at Week 26 excluding data after study drug discontinuation or rescue drug initiation; mITT=modified intent-to-treat; SD=standard deviation. For Table 4, n=number of patients in the population with baseline and post-baseline value at the specified time point. For Table 6, LY10 mg=escalation dose group tirzepatide, once weekly with highest dose of 10 mg; escalation dose: (5 mg weeks 0 and 1), LY15 mg=escalation dose group tirzepatide, once weekly with highest dose of 15 mg; escalation dose: (5 mg weeks 0 and 1; 10 mg weeks 2 to 5); N=number of patients in specified group, m=number of patients who experienced new event during interval, FolUp=follow up, T/Wk=Time range, (week) and %=means percent patients spending at least some time in treatment group who experienced new event during interval. For Table 7, n is the number of patients with events meeting the criteria; N is number of patients in the population; % is percent of patients in treatment group experiencing the event.

[2] = NCT03311724: nausea, vomiting and diarrhea, new events per interval; assay type: in vivo, human
Text: This is a 12-week treatment with a 1 week screening (Visit 1) followed by a 1 week lead-in (Visit 2), then 12 weeks of treatment (Visits 3-10, including telephone visits), then followed by 4-week safety follow-up. It is a Phase 2 study designed to examine the efficacy and tolerability of subcutaneously once-weekly tirzepatide compared with placebo in patients with type 2 diabetes who have inadequate glycemic control with diet and exercise alone or with a stable dose of metformin. The study was designed per below and conducted to refine the escalation scheme.

[3] = LY1 mg = tirzepatide 1 mg once weekly, N 44
[4] = LY5 mg = tirzepatide 5 mg once weekly, N 48
[5] = LY10 mg = tirzepatide once weekly, highest dose 10 mg, N 44
[6] = LY15 mg = tirzepatide once weekly, highest dose 15 mg, N 35

Substance: tirzepatide [LY]
- Mean change from baseline, fasting glucose [1, 3]: −6.2
- Mean glucose value (fasting) [1, 3]: 154.9 mg/dL
- Mean change from baseline, fasting glucose [1, 4]: −46.7
- Mean glucose value (fasting) [1, 4]: 126.5 mg/dL
- Mean change from baseline, fasting glucose [1, 5]: −66.9
- Mean glucose value (fasting) [1, 5]: 104.8 mg/dL
- Mean change from baseline, fasting glucose [1, 6]: −56.8
- Mean glucose value (fasting) [1, 6]: 110.3 mg/dL
- fasting serum glucose (in words) ([1]; tirzepatide 5 mg, 10 mg, and 15 mg doses): significantly decrease fasting serum glucose compared with placebo and dulaglutide 1.5 mg
- Nausea Vomiting and Diarrhea: m, number of patients who experienced new event during interval ([2]; LY12 mg Group 3 (tirzepatide 4 mg × 4, 8 mg × 4, 12 mg × 4 once weekly), N = 29, Follow-up): m = 1;
- Nausea Vomiting and Diarrhea: m, number of patients who experienced new event during interval ([2]; LY12 mg Group 3 (tirzepatide 4 mg × 4, 8 mg × 4, 12 mg × 4 once weekly), N = 29, Overall): m = 14;
- Nausea Vomiting and Diarrhea: m, number of patients who experienced new event during interval ([2]; LY12 mg Group 3 (tirzepatide 4 mg × 4, 8 mg × 4, 12 mg × 4 once weekly), N = 29, T/Wk 0): m = 9;
- Nausea Vomiting and Diarrhea: m, number of patients who experienced new event during interval ([2]; LY12 mg Group 3 (tirzepatide 4 mg × 4, 8 mg × 4, 12 mg × 4 once weekly), N = 29, T/Wk 1): m = 5;
- Nausea Vomiting and Diarrhea: m, number of patients who experienced new event during interval ([2]; LY12 mg Group 3 (tirzepatide 4 mg × 4, 8 mg × 4, 12 mg × 4 once weekly), N = 29, T/Wk 2): m = 1;
- Nausea Vomiting and Diarrhea: m, number of patients who experienced new event during interval ([2]; LY12 mg Group 3 (tirzepatide 4 mg × 4, 8 mg × 4, 12 mg × 4 once weekly), N = 29, T/Wk 3): m = 3;
- Nausea Vomiting and Diarrhea: m, number of patients who experienced new event during interval ([2]; LY12 mg Group 3 (tirzepatide 4 mg × 4, 8 mg × 4, 12 mg × 4 once weekly), N = 29, T/Wk 4): m = 3;
- Nausea Vomiting and Diarrhea: m, number of patients who experienced new event during interval ([2]; LY12 mg Group 3 (tirzepatide 4 mg × 4, 8 mg × 4, 12 mg × 4 once weekly), N = 29, T/Wk 5): m = 0;
- Nausea Vomiting and Diarrhea: m, number of patients who experienced new event during interval ([2]; LY12 mg Group 3 (tirzepatide 4 mg × 4, 8 mg × 4, 12 mg × 4 once weekly), N = 29, T/Wk 6): m = 2;
- Nausea Vomiting and Diarrhea: m, number of patients who experienced new event during interval ([2]; LY12 mg Group 3 (tirzepatide 4 mg × 4, 8 mg × 4, 12 mg × 4 once weekly), N = 29, T/Wk 7): m = 1;
- Nausea Vomiting and Diarrhea: m, number of patients who experienced new event during interval ([2]; LY12 mg Group 3 (tirzepatide 4 mg × 4, 8 mg × 4, 12 mg × 4 once weekly), N = 29, T/Wk 8): m = 4;
- Nausea Vomiting and Diarrhea: m, number of patients who experienced new event during interval ([2]; LY12 mg Group 3 (tirzepatide 4 mg × 4, 8 mg × 4, 12 mg × 4 once weekly), N = 29, T/Wk 9): m = 1;
- Nausea Vomiting and Diarrhea: m, number of patients who experienced new event during interval ([2]; LY12 mg Group 3 (tirzepatide 4 mg × 4, 8 mg × 4, 12 mg × 4 once weekly), N = 29, T/Wk 10): m = 1;
- Nausea Vomiting and Diarrhea: m, number of patients who experienced new event during interval ([2]; LY12 mg Group 3 (tirzepatide 4 mg × 4, 8 mg × 4, 12 mg × 4 once weekly), N = 29, T/Wk 11): m = 0;
- Nausea Vomiting and Diarrhea: m, number of patients who experienced new event during interval ([2]; LY12 mg Group 3 (tirzepatide 4 mg × 4, 8 mg × 4, 12 mg × 4 once weekly), N = 29, T/Wk 12): m = 1;
- Nausea Vomiting and Diarrhea: m, number of patients who experienced new event during interval ([2]; LY15 mg-Group 1 (tirzepatide 2.5 mg × 2, 5 mg × 2, 10 mg × 4, 15 mg × 4 once weekly), N = 28, Follow-up): m = 0;
- Nausea Vomiting and Diarrhea: m, number of patients who experienced new event during interval ([2]; LY15 mg-Group 1 (tirzepatide 2.5 mg × 2, 5 mg × 2, 10 mg × 4, 15 mg × 4 once weekly), N = 28, Overall): m = 16;
- Nausea Vomiting and Diarrhea: m, number of patients who experienced new event during interval ([2]; LY15 mg-Group 1 (tirzepatide 2.5 mg × 2, 5 mg × 2, 10 mg × 4, 15 mg × 4 once weekly), N = 28, T/Wk 0): m = 6;
